Numbered stars: 1 amine (or outer) side, 2 acyl side, 3 side chain; on linkers, the order of the positions; unused ones are H or OH. Square brackets hold non-standard residues; d marks the D form. Side chains are listed from the residue outwards. Ends that are not written are not given here. * marks the point of attachment. C18 diacid = O=C(O)CCCCCCCCCCCCCCCCC(=O)*; γGlu = O=C(O)[C@H](CCC(=O)[*:2])N[*:1]; AEEA = NCCOCCOCC(=O)O; Aib = CC(C)(N)C(=O)O
Experiments:
human GLP-1 receptor [1] = molecular target: T1, human GLP-1 receptor (human, UniProt P43220 24-463); test: cell-based or functional assay
human glucagon receptor [2] = molecular target: T2, human glucagon receptor (human, UniProt P47871 26-477); test: cell-based or functional assay
T2 sequence (P47871 26-477): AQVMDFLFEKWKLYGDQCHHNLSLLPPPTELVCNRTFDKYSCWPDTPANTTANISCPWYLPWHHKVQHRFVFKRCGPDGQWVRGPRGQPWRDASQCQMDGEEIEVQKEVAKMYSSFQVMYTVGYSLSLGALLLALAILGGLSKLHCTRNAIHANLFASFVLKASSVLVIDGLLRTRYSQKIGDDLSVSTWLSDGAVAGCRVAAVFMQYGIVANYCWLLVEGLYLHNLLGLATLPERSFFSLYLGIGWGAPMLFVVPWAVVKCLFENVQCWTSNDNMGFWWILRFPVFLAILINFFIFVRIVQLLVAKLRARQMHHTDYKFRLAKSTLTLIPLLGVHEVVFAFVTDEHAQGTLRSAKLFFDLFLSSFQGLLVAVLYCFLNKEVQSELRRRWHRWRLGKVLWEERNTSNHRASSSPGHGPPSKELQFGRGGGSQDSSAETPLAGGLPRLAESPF

human GLP-1 receptor [3] = molecular target: T1, human GLP-1 receptor; test: displacement of 125I-GLP-1(7-36)NH2, membranes with human GLP-1R, SPA
Method: (§1) The receptor binding of each compound to the human GLP-1 receptor was measured in a displacement binding assay. […] Each derivative was added in a series of concentrations to isolated membranes containing the human GLP-1 receptor and displacement of the labelled ligand was monitored. The receptor binding was reported as the concentration at which half of the labelled ligand was displaced from the receptor, the IC₅₀ value.

human glucagon receptor [4] = molecular target: T2, human glucagon receptor; test: displacement of 125I-glucagon, membranes with human glucagon receptor, SPA
Method: as §1, with “human glucagon” for “human GLP-1”, “ligand is” for “ligand was”

| Binder | EC50 GLP-1R, CRE luciferase reporter gene assay in BHK cells (human GLP-1 receptor [1]) [nM] | EC50 GlucR, CRE luciferase reporter gene assay in BHK cells (human glucagon receptor [2]) [nM] | IC50 (human GLP-1 receptor [3]) [nM] | IC50 (human glucagon receptor [4]) [nM] |
| --- | --- | --- | --- | --- |
| H[Aib]QGTFTSDLSKYLDSRRAREFVQWLLNK([γGlu-γGlu-AEEA-AEEA-γGlu-C18 diacid])-NH2 (N-terminus assumed; SMILES CC(C)C[C@H](NC(=O)[C@H](CC(C)C)NC(=O)[C@H](Cc1c[nH]c2ccccc12)NC(=O)[C@H](CCC(N)=O)NC(=O)[C@@H](NC(=O)[C@H](Cc1ccccc1)NC(=O)[C@H](CCC(=O)O)NC(=O)[C@H](CCCNC(=N)N)NC(=O)[C@H](C)NC(=O)[C@H](CCCNC(=N)N)NC(=O)[C@H](CCCNC(=N)N)NC(=O)[C@H](CO)NC(=O)[C@H](CC(=O)O)NC(=O)[C@H](CC(C)C)NC(=O)[C@H](Cc1ccc(O)cc1)NC(=O)[C@H](CCCCN)NC(=O)[C@H](CO)NC(=O)[C@H](CC(C)C)NC(=O)[C@H](CC(=O)O)NC(=O)[C@H](CO)NC(=O)[C@@H](NC(=O)[C@H](Cc1ccccc1)NC(=O)[C@@H](NC(=O)CNC(=O)[C@H](CCC(N)=O)NC(=O)C(C)(C)NC(=O)[C@@H](N)Cc1c[nH]cn1)[C@@H](C)O)[C@@H](C)O)C(C)C)C(=O)N[C@@H](CC(N)=O)C(=O)N[C@@H](CCCCNC(=O)CC[C@H](NC(=O)CC[C@H](NC(=O)COCCOCCNC(=O)COCCOCCNC(=O)CC[C@H](NC(=O)CCCCCCCCCCCCCCCCC(=O)O)C(=O)O)C(=O)O)C(=O)O)C(N)=O) | 0.0147 | 0.104 | 0.5 | 7 |
| H[Aib]QGTFTSDLSKYLDKRAAREFVAWLLNT-NH2 (not fully specified) | 0.0023 | 0.22 | 0.1 | 11 |
| H[Aib]QGTFTSDLSKYLESKRAREFVQWLLKT-NH2 (not fully specified) | 0.0118 | 0.0871 | 0.2 | 7.1 |
| H[Aib]QGTFTSDLSKYLDARRARDFVQWLLSK([γGlu-γGlu-AEEA-AEEA-γGlu-C18 diacid])-NH2 (N-terminus assumed; SMILES CC(C)C[C@H](NC(=O)[C@H](Cc1ccc(O)cc1)NC(=O)[C@H](CCCCN)NC(=O)[C@H](CO)NC(=O)[C@H](CC(C)C)NC(=O)[C@H](CC(=O)O)NC(=O)[C@H](CO)NC(=O)[C@@H](NC(=O)[C@H](Cc1ccccc1)NC(=O)[C@@H](NC(=O)CNC(=O)[C@H](CCC(N)=O)NC(=O)C(C)(C)NC(=O)[C@@H](N)Cc1c[nH]cn1)[C@@H](C)O)[C@@H](C)O)C(=O)N[C@@H](CC(=O)O)C(=O)N[C@@H](C)C(=O)N[C@@H](CCCNC(=N)N)C(=O)N[C@@H](CCCNC(=N)N)C(=O)N[C@@H](C)C(=O)N[C@@H](CCCNC(=N)N)C(=O)N[C@@H](CC(=O)O)C(=O)N[C@@H](Cc1ccccc1)C(=O)N[C@H](C(=O)N[C@@H](CCC(N)=O)C(=O)N[C@@H](Cc1c[nH]c2ccccc12)C(=O)N[C@@H](CC(C)C)C(=O)N[C@@H](CC(C)C)C(=O)N[C@@H](CO)C(=O)N[C@@H](CCCCNC(=O)CC[C@H](NC(=O)CC[C@H](NC(=O)COCCOCCNC(=O)COCCOCCNC(=O)CC[C@H](NC(=O)CCCCCCCCCCCCCCCCC(=O)O)C(=O)O)C(=O)O)C(=O)O)C(N)=O)C(C)C) | 0.005 | 0.047 | 0.6 | 10.4 |
| H[Aib]QGTFTSDLSKYLDSKAAQEFVQWLLNK([γGlu-γGlu-AEEA-AEEA-γGlu-C18 diacid])-NH2 (N-terminus assumed; SMILES CC(C)C[C@H](NC(=O)[C@H](CC(C)C)NC(=O)[C@H](Cc1c[nH]c2ccccc12)NC(=O)[C@H](CCC(N)=O)NC(=O)[C@@H](NC(=O)[C@H](Cc1ccccc1)NC(=O)[C@H](CCC(=O)O)NC(=O)[C@H](CCC(N)=O)NC(=O)[C@H](C)NC(=O)[C@H](C)NC(=O)[C@H](CCCCN)NC(=O)[C@H](CO)NC(=O)[C@H](CC(=O)O)NC(=O)[C@H](CC(C)C)NC(=O)[C@H](Cc1ccc(O)cc1)NC(=O)[C@H](CCCCN)NC(=O)[C@H](CO)NC(=O)[C@H](CC(C)C)NC(=O)[C@H](CC(=O)O)NC(=O)[C@H](CO)NC(=O)[C@@H](NC(=O)[C@H](Cc1ccccc1)NC(=O)[C@@H](NC(=O)CNC(=O)[C@H](CCC(N)=O)NC(=O)C(C)(C)NC(=O)[C@@H](N)Cc1c[nH]cn1)[C@@H](C)O)[C@@H](C)O)C(C)C)C(=O)N[C@@H](CC(N)=O)C(=O)N[C@@H](CCCCNC(=O)CC[C@H](NC(=O)CC[C@H](NC(=O)COCCOCCNC(=O)COCCOCCNC(=O)CC[C@H](NC(=O)CCCCCCCCCCCCCCCCC(=O)O)C(=O)O)C(=O)O)C(=O)O)C(N)=O) | 0.0296 | 1.13 | 1.1 | 6.7 |
| H[Aib]QGTFTSDLSKYLDSRAAREFVQWLLNK([γGlu-γGlu-AEEA-AEEA-γGlu-C18 diacid])-NH2 (N-terminus assumed; SMILES CC(C)C[C@H](NC(=O)[C@H](CC(C)C)NC(=O)[C@H](Cc1c[nH]c2ccccc12)NC(=O)[C@H](CCC(N)=O)NC(=O)[C@@H](NC(=O)[C@H](Cc1ccccc1)NC(=O)[C@H](CCC(=O)O)NC(=O)[C@H](CCCNC(=N)N)NC(=O)[C@H](C)NC(=O)[C@H](C)NC(=O)[C@H](CCCNC(=N)N)NC(=O)[C@H](CO)NC(=O)[C@H](CC(=O)O)NC(=O)[C@H](CC(C)C)NC(=O)[C@H](Cc1ccc(O)cc1)NC(=O)[C@H](CCCCN)NC(=O)[C@H](CO)NC(=O)[C@H](CC(C)C)NC(=O)[C@H](CC(=O)O)NC(=O)[C@H](CO)NC(=O)[C@@H](NC(=O)[C@H](Cc1ccccc1)NC(=O)[C@@H](NC(=O)CNC(=O)[C@H](CCC(N)=O)NC(=O)C(C)(C)NC(=O)[C@@H](N)Cc1c[nH]cn1)[C@@H](C)O)[C@@H](C)O)C(C)C)C(=O)N[C@@H](CC(N)=O)C(=O)N[C@@H](CCCCNC(=O)CC[C@H](NC(=O)CC[C@H](NC(=O)COCCOCCNC(=O)COCCOCCNC(=O)CC[C@H](NC(=O)CCCCCCCCCCCCCCCCC(=O)O)C(=O)O)C(=O)O)C(=O)O)C(N)=O) | 0.0032 | 0.699 | 0.2 | 381 |
